From patent US20260250420A1 (SICHUAN KELUN BIOTECH BIOPHARMACEUTICAL, published 2026) come the findings set out here.

By Kd is commonly meant a measure of binding affinity in units of concentration. The low end stands for a tighter complex, the high end for a looser complex. For orientation: EC50 means the concentration needed to bring the measured effect to its halfway point. High values mean a less potent agent, low ones a more potent agent.

For assay [1], the target named is T1, human PTK7 protein (extracellular sequence of human PTK7 with C-terminal 6×His tag) (human, UniProt Q13308 31-704).
T1 construct: extracellular domain; Expressed transiently in HEK293 cells; also called human PTK7-His; human PTK7-His protein
T1 sequence: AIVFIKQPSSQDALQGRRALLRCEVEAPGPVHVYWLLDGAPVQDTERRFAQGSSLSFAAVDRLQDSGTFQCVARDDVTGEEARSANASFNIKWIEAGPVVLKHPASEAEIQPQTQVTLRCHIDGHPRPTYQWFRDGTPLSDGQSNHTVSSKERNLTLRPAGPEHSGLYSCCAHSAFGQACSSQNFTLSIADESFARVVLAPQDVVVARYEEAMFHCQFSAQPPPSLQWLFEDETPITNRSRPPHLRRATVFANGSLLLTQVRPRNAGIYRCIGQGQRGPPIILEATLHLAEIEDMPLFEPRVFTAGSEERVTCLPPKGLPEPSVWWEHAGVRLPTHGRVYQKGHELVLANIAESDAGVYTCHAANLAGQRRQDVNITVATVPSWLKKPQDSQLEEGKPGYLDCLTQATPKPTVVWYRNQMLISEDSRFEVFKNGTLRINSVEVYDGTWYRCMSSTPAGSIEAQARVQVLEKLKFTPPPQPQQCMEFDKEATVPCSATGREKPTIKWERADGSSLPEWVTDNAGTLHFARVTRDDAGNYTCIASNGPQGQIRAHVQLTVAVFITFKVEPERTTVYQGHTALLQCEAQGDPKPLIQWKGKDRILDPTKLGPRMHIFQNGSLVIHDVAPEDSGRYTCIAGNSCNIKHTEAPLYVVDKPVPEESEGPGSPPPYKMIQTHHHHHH
Put plainly: competition ELISA on coated human PTK7 protein; competitor: biotin-labelled 101A6HZ at a fixed concentration. How it is done: The human PTK7 protein was diluted to reach 1 μg/ml by using the CBS coating liquid, coated by a 96-well microtiter plate at a density of 100 μl/well, and stood overnight at 4° C.; and after the plate was washed and blocked, the biotin-labeled antibody and the to-be-detected antibody were added, and incubated for 2 h at room temperature. After the plate was washed, the secondary antibody was added for incubation, and finally was subjected to color development, then the reaction was terminated, and the absorbance at OD₄₅₀ nm was read by the microplate reader. The original data was imported into software for nonlinear curve fitting (four parameters).
(In general: An ELISA detects its analyte on a solid surface through an enzyme-linked reagent.)

For assay [2], the target named is T2, human Fc receptor protein FcRn (human, UniProt P55899 24-297; P61769 21-119, biotinylated).
T2 construct: Biotinylated protein captured on SA sensors
T2 sequence (P55899 24-297 limits assumed, form in doubt, chain 1 of 2): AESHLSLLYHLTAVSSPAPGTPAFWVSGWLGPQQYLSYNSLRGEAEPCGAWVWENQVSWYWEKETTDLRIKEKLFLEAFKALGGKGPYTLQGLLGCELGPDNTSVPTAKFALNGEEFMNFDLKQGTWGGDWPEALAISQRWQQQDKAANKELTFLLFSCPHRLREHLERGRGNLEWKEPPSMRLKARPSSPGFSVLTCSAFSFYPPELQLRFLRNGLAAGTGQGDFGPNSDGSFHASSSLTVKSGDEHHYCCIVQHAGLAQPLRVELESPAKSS
T2 sequence (P61769 21-119 limits assumed, form in doubt, chain 2 of 2): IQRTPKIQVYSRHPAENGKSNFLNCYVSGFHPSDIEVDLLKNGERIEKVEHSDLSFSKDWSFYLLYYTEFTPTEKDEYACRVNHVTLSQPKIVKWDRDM
Put plainly: BLI (ForteBio), biotinylated receptor on SA sensor, antibody from 5,000 nM, 1:1 global fit. The source says:
The dynamic affinity of the antibodies 101A6HZ, 101A6HZm and Hu24 with human Fc receptor proteins CD16a, CD32a, CD32b, CD64 and FcRn was detected through ForteBio (Pall life sciences).
For orientation: BLI is a label-free optical method that tracks binding on a fibre tip over time.

Assay [3] concerns the target T3, human PTK7 on cells (tumor cells endogenously expressing PTK7); CHO-hPTK7, CHO-S-hPTK7 and 293T-hPTK7 … (human, UniProt Q13308 31-1070).
T3 construct: whole, on cells; The cell line of each value is named under assay; also called H1299; H358
T3 sequence (looked up): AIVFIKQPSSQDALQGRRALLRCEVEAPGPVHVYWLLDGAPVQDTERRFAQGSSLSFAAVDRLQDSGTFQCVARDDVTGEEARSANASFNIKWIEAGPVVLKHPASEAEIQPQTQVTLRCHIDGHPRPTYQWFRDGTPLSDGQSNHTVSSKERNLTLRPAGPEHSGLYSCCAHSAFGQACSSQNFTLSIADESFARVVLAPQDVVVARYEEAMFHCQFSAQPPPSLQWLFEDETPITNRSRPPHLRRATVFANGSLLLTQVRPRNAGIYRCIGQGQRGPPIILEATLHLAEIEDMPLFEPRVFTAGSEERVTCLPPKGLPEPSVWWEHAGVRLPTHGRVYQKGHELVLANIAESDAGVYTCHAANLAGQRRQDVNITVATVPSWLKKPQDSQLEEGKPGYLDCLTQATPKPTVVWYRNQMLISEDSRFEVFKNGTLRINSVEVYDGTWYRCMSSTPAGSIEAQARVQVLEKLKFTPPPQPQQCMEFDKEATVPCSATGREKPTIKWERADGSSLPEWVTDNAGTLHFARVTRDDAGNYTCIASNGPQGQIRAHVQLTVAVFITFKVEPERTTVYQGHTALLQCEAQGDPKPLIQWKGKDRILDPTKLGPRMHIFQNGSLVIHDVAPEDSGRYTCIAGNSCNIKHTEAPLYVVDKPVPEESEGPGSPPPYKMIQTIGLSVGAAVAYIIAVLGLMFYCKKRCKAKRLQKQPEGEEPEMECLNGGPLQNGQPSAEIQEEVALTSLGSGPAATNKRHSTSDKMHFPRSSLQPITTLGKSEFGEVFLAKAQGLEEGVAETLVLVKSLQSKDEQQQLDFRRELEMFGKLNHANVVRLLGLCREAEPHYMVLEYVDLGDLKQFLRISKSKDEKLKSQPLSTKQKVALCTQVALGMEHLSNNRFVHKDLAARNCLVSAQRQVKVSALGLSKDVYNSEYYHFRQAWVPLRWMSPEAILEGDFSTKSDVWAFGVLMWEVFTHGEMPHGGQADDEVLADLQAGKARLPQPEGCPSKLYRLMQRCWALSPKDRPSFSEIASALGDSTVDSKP
Put plainly: competition flow cytometry on 293T-hPTK7 cells, streptavidin-PE; competitor: biotin-labelled 64A10HZ. (A flow cytometer gives signals particle by particle.)

Assay [4] deals with T1, human PTK7 protein (extracellular …). Kind of assay: ELISA, coated human PTK7 protein 1 µg/ml. The method, then:
Original data was imported into software for nonlinear curve fitting, and EC₅₀ of binding of each antibody to human PTK7 and monkey PTK7 was calculated, respectively. As shown in Table 1 and FIGS. 1A-1B, the screened antibodies could be bound to the human and monkey PTK7 proteins with affinity higher than that of the control antibody Hu24.

B1: 101A6HZ (anti-human PTK7 humanized antibody) (antibody, human IgG1, kappa)
heavy: not shown
light: DIVMTQSPDSLAVSLGERATINCKASQDVGSAVIWYQQKPGQSPKLLIYWASTRHTGVPDRFSGSGSGTDFTLTISSLQAEDVAVYYCQQYSSYPLTFGQGTKLEIKRTVAAPSVFIFPPSDEQLKSGTASVVCLLNNFYPREAKVQWKVDNALQSGNSQESVTEQDSKDSTYSLSSTLTLSKADYEKHKVYACEVTHQGLSSPVTKSFNRGEC
Regarding B1, the “IC50 (read off the curve)” value in assay [1] is approximately 0.08 µg/mL. Also, the Kd in assay [2] was 11.8 nM.

B2: 64A10HZ (anti-human PTK7 humanized antibody) (antibody, human IgG1, kappa, V domains shown)
VH: QVQLQESGPGLVKPSETLSLTCTVSGFSLTSYGVYWVRQPPGKGPEWLGVIWTSGNTNYNPSLKSRLTISKDNSKNQVSLKLSSVTAADTAVYYCVKHDGGNYVGVMNYWGQGTLVTVSS
VL: EIVMTQSPDFQSVTPKEKVTITCRASQSISDYLHWYQQKPDQSPKLLIKYASQSISGVPSRFSGSGSGSDFTLTINSLEAEDAATYYCQNGHSFPPTFGQGTKLEIKR
notes: Human IgG1 heavy chain constant region and human Kappa light chain constant region; expressed in CHO-S cells
For the molecule B2, in assay [3], the “IC50 (read off the curve)” value is approximately 0.3 µg/mL.

B3: Hu24 (PTK7 control antibody, taken from Hu24 in the Patent CN201580030255) (antibody)
chain 1: QVQLVQSGPEVKKPGASVKVSCKASGYTFTDYAVHWVRQAPGKRLEWIGVISTYNDYTYNNQDFKGRVTMTRDTSASTAYMELSRLRSEDTAVYYCARGNSYFYALDYWGQGTSVTVSS
chain 2: EIVLTQSPATLSLSPGERATLSCRASESVDSYGKSFMHWYQQKPGQAPRLLIYRASNLESGIPARFSGSGSGTDFTLTISSLEPEDFAVYYCQQSNEDPWTFGGGTKLEIK
Take B3: it took 0.0457 µg/mL to reach a half-maximal effect in assay [4] (EC50).
